Measurements as given in the Human Domainome abundance scans (Beltran et al. 2025).
± gives the uncertainty stated by the source.

B1: RanBP-type and C3HC4-type zinc finger-containing protein 1, residues 369 to 411; numbered along this chain, Q9BYM8 (parent)
chain: YHCKTPDCKGWCFFEDDVNEFTCPVCFHVNCLLCKAIHEQMNC

Variants of: B1
Assay: abundance fitness (aPCA) (normalised: wild type 0, dead -1); higher = more abundant; growth selection in yeast, the domain comes from the species named
Settings: Homo sapiens

| Variant | abundance fitness |
| --- | --- |
| YHQKTPDCKGWCFFEDDVNEFTCPVCFHVNCLLCKAIHEQMNC [C3Q] | -0.886 ± 0.12 |
| YHWKTPDCKGWCFFEDDVNEFTCPVCFHVNCLLCKAIHEQMNC [C3W] | -0.879 ± 0.06 |
| WHCKTPDCKGWCFFEDDVNEFTCPVCFHVNCLLCKAIHEQMNC [Y1W] | -0.437 ± 0.074 |
| KHCKTPDCKGWCFFEDDVNEFTCPVCFHVNCLLCKAIHEQMNC [Y1K] | -0.336 ± 0.095 |
| IHCKTPDCKGWCFFEDDVNEFTCPVCFHVNCLLCKAIHEQMNC [Y1I] | 0.051 ± 0.2 |
| HHCKTPDCKGWCFFEDDVNEFTCPVCFHVNCLLCKAIHEQMNC [Y1H] | -0.256 ± 0.12 |
| THCKTPDCKGWCFFEDDVNEFTCPVCFHVNCLLCKAIHEQMNC [Y1T] | -0.24 ± 0.06 |
| MHCKTPDCKGWCFFEDDVNEFTCPVCFHVNCLLCKAIHEQMNC [Y1M] | 0.028 ± 0.099 |
| VHCKTPDCKGWCFFEDDVNEFTCPVCFHVNCLLCKAIHEQMNC [Y1V] | -0.265 ± 0.06 |
| SHCKTPDCKGWCFFEDDVNEFTCPVCFHVNCLLCKAIHEQMNC [Y1S] | -0.409 ± 0.085 |
| LHCKTPDCKGWCFFEDDVNEFTCPVCFHVNCLLCKAIHEQMNC [Y1L] | -0.453 ± 0.14 |
| NHCKTPDCKGWCFFEDDVNEFTCPVCFHVNCLLCKAIHEQMNC [Y1N] | -0.408 ± 0.069 |
| YHCKCPDCKGWCFFEDDVNEFTCPVCFHVNCLLCKAIHEQMNC [T5C] | -0.063 ± 0.081 |
| YHCKSPDCKGWCFFEDDVNEFTCPVCFHVNCLLCKAIHEQMNC [T5S] | -0.054 ± 0.059 |
| YHCKLPDCKGWCFFEDDVNEFTCPVCFHVNCLLCKAIHEQMNC [T5L] | -0.004 ± 0.057 |
| YHCKVPDCKGWCFFEDDVNEFTCPVCFHVNCLLCKAIHEQMNC [T5V] | -0.083 ± 0.049 |
| YHCKRPDCKGWCFFEDDVNEFTCPVCFHVNCLLCKAIHEQMNC [T5R] | -0.099 ± 0.043 |
| YHCKAPDCKGWCFFEDDVNEFTCPVCFHVNCLLCKAIHEQMNC [T5A] | -0.131 ± 0.062 |
| YHCKPPDCKGWCFFEDDVNEFTCPVCFHVNCLLCKAIHEQMNC [T5P] | -0.764 ± 0.083 |
| YHCKMPDCKGWCFFEDDVNEFTCPVCFHVNCLLCKAIHEQMNC [T5M] | 0.003 ± 0.059 |

| Variant | abundance fitness |
| --- | --- |
| YHCKYPDCKGWCFFEDDVNEFTCPVCFHVNCLLCKAIHEQMNC [T5Y] | -0.169 ± 0.098 |
| YHCKGPDCKGWCFFEDDVNEFTCPVCFHVNCLLCKAIHEQMNC [T5G] | -0.308 ± 0.039 |
| YHCKQPDCKGWCFFEDDVNEFTCPVCFHVNCLLCKAIHEQMNC [T5Q] | -0.004 ± 0.052 |
| YHCKHPDCKGWCFFEDDVNEFTCPVCFHVNCLLCKAIHEQMNC [T5H] | -0.159 ± 0.067 |
| YHCKNPDCKGWCFFEDDVNEFTCPVCFHVNCLLCKAIHEQMNC [T5N] | -0.236 ± 0.098 |
| YHCKIPDCKGWCFFEDDVNEFTCPVCFHVNCLLCKAIHEQMNC [T5I] | -0.533 ± 0.19 |
| YHCKEPDCKGWCFFEDDVNEFTCPVCFHVNCLLCKAIHEQMNC [T5E] | -0.184 ± 0.061 |
| YECKTPDCKGWCFFEDDVNEFTCPVCFHVNCLLCKAIHEQMNC [H2E] | -0.554 ± 0.07 |
| YSCKTPDCKGWCFFEDDVNEFTCPVCFHVNCLLCKAIHEQMNC [H2S] | -0.072 ± 0.05 |
| YACKTPDCKGWCFFEDDVNEFTCPVCFHVNCLLCKAIHEQMNC [H2A] | -0.285 ± 0.044 |
| YNCKTPDCKGWCFFEDDVNEFTCPVCFHVNCLLCKAIHEQMNC [H2N] | 0.104 ± 0.1 |
| YGCKTPDCKGWCFFEDDVNEFTCPVCFHVNCLLCKAIHEQMNC [H2G] | -0.568 ± 0.051 |
| YTCKTPDCKGWCFFEDDVNEFTCPVCFHVNCLLCKAIHEQMNC [H2T] | -0.149 ± 0.059 |
| YRCKTPDCKGWCFFEDDVNEFTCPVCFHVNCLLCKAIHEQMNC [H2R] | 0.035 ± 0.041 |
| YVCKTPDCKGWCFFEDDVNEFTCPVCFHVNCLLCKAIHEQMNC [H2V] | -0.739 ± 0.071 |
| YMCKTPDCKGWCFFEDDVNEFTCPVCFHVNCLLCKAIHEQMNC [H2M] | -0.031 ± 0.059 |
| YQCKTPDCKGWCFFEDDVNEFTCPVCFHVNCLLCKAIHEQMNC [H2Q] | 0.091 ± 0.053 |
| YFCKTPDCKGWCFFEDDVNEFTCPVCFHVNCLLCKAIHEQMNC [H2F] | 0.029 ± 0.074 |
| YKCKTPDCKGWCFFEDDVNEFTCPVCFHVNCLLCKAIHEQMNC [H2K] | 0.095 ± 0.062 |
| YYCKTPDCKGWCFFEDDVNEFTCPVCFHVNCLLCKAIHEQMNC [H2Y] | 0.105 ± 0.07 |

| Variant | abundance fitness |
| --- | --- |
| YDCKTPDCKGWCFFEDDVNEFTCPVCFHVNCLLCKAIHEQMNC [H2D] | -0.275 ± 0.11 |
| YLCKTPDCKGWCFFEDDVNEFTCPVCFHVNCLLCKAIHEQMNC [H2L] | -0.233 ± 0.056 |
| YCCKTPDCKGWCFFEDDVNEFTCPVCFHVNCLLCKAIHEQMNC [H2C] | -0.103 ± 0.069 |
| YICKTPDCKGWCFFEDDVNEFTCPVCFHVNCLLCKAIHEQMNC [H2I] | -0.265 ± 0.14 |
| YHCKTPECKGWCFFEDDVNEFTCPVCFHVNCLLCKAIHEQMNC [D7E] | 0.034 ± 0.054 |
| YHCKTPQCKGWCFFEDDVNEFTCPVCFHVNCLLCKAIHEQMNC [D7Q] | -0.194 ± 0.065 |
| YHCKTPHCKGWCFFEDDVNEFTCPVCFHVNCLLCKAIHEQMNC [D7H] | -0.2 ± 0.067 |
| YHCKTPVCKGWCFFEDDVNEFTCPVCFHVNCLLCKAIHEQMNC [D7V] | -0.597 ± 0.047 |
| YHCKTPFCKGWCFFEDDVNEFTCPVCFHVNCLLCKAIHEQMNC [D7F] | -0.245 ± 0.087 |
| YHCKTPSCKGWCFFEDDVNEFTCPVCFHVNCLLCKAIHEQMNC [D7S] | -0.165 ± 0.048 |
| YHCKTPLCKGWCFFEDDVNEFTCPVCFHVNCLLCKAIHEQMNC [D7L] | -0.2 ± 0.04 |
| YHCKTPPCKGWCFFEDDVNEFTCPVCFHVNCLLCKAIHEQMNC [D7P] | -0.615 ± 0.11 |
| YHCKTPKCKGWCFFEDDVNEFTCPVCFHVNCLLCKAIHEQMNC [D7K] | -0.095 ± 0.074 |
| YHCKTPCCKGWCFFEDDVNEFTCPVCFHVNCLLCKAIHEQMNC [D7C] | -0.656 ± 0.42 |
| YHCKTPMCKGWCFFEDDVNEFTCPVCFHVNCLLCKAIHEQMNC [D7M] | -0.202 ± 0.062 |
| YHCKTPGCKGWCFFEDDVNEFTCPVCFHVNCLLCKAIHEQMNC [D7G] | 0.057 ± 0.04 |
| YHCKTPICKGWCFFEDDVNEFTCPVCFHVNCLLCKAIHEQMNC [D7I] | -0.812 ± 0.26 |
| YHCKTPWCKGWCFFEDDVNEFTCPVCFHVNCLLCKAIHEQMNC [D7W] | -0.469 ± 0.044 |
| YHCKTPRCKGWCFFEDDVNEFTCPVCFHVNCLLCKAIHEQMNC [D7R] | -0.117 ± 0.036 |
